This passage reports Peptide Intensity (fraction of the highest abundance among the three IP antibodies) results from patent publication US20190086422A1.

Assay [1] deals with Tau protein from human CSF (human) (UniProt P10636). Description: IP from human CSF, trypsin digest, MS; Tau peptide 299-316 as printed (SEQ ID NO 83) quantified.
The target is the same in assay [2]. Description: IP from human CSF, trypsin digest, MS; Tau peptide 282-290 (SEQ ID NO 82) quantified.
The target is the same in assay [3]. Description: IP from human CSF, trypsin digest, MS; Tau peptide 354-369 (SEQ ID NO 84) quantified.
Assay [4] shares this target. The experiment in a line: IP from human CSF, trypsin digest, MS; Tau peptide 88-126 (SEQ ID NO 73) quantified.
The target is the same in assay [5]. The experiment in a line: IP from human CSF, trypsin digest, MS; Tau peptide 396-406 (SEQ ID NO 86) quantified.
Assay [6] shares this target. Description: IP from human CSF, trypsin digest, MS; Tau peptide 275-280 (SEQ ID NO 81) quantified.
The target is the same in assay [7]. The experiment in a line: IP from human CSF, trypsin digest, MS; Tau peptide 386-395 (SEQ ID NO 85) quantified.
For assay [8] the target is unchanged. The experiment in a line: IP from human CSF, trypsin digest, MS; Tau peptide 260-267 (SEQ ID NO 80) quantified.
Assay [9] has the same target. The experiment in a line: IP from human CSF, trypsin digest, MS; Tau peptide 45-67 (SEQ ID NO 71) quantified.
Assay [10] has the same target. The experiment in a line: IP from human CSF, trypsin digest, MS; Tau peptide 212-224 (SEQ ID NO 79) quantified.
Assay [11] shares this target. Description: IP from human CSF, trypsin digest, MS; Tau peptide 175-180 (SEQ ID NO 75) quantified.
The target is the same in assay [12]. The experiment in a line: IP from human CSF, trypsin digest, MS; Tau peptide 6-23 (SEQ ID NO 69) quantified.
The target is the same in assay [13]. The experiment in a line: IP from human CSF, trypsin digest, MS; Tau peptide 195-209 (SEQ ID NO 77) quantified.
Assay [14] has the same target. Description: IP from human CSF, trypsin digest, MS; Tau peptide 24-44 (SEQ ID NO 70) quantified.
Assay [15] has the same target. Description: IP from human CSF, trypsin digest, MS; Tau peptide 68-87 (SEQ ID NO 72) quantified.
The target is the same in assay [16]. The experiment in a line: IP from human CSF, trypsin digest, MS; Tau peptide 151-155 (SEQ ID NO 74) quantified.
Assay [17] has the same target. Description: IP from human CSF, trypsin digest, MS; Tau peptide 212-221 (SEQ ID NO 78) quantified.
Assay [18] has the same target. Description: IP from human CSF, trypsin digest, MS; Tau peptide 181-190 (SEQ ID NO 76) quantified.

Chain of UniProt P10636 (P10636 other isoform, or with tags, fused parts or gaps limits assumed): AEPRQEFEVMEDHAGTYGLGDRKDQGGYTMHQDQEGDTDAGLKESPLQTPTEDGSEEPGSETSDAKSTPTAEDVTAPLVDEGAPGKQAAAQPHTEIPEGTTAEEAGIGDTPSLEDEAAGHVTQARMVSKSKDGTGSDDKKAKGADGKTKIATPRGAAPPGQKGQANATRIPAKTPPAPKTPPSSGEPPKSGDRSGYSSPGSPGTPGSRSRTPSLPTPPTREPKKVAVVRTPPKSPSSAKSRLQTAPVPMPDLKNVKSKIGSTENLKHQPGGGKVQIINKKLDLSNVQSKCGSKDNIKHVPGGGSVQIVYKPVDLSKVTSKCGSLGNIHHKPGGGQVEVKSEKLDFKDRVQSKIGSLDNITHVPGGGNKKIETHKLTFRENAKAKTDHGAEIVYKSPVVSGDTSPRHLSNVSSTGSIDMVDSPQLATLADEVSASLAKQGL

Turning to HJ8.7 (antibody), the Peptide Intensity (fraction of the highest abundance among the three IP antibodies) was 1 in assay [1]; 0.04 in assay [2]; 1 in [3]; 1 in assay [4]; 0.39 in assay [5]; 1 in assay [6]. Also, the Peptide Intensity (fraction of the highest abundance among the three IP antibodies) came out at 1 in assay [7]; 1 in [8]; 1 in assay [9]; 0.94 in assay [10]; 1 in [11]; 0.68 in assay [12]. The Peptide Intensity (fraction of the highest abundance among the three IP antibodies) was 0.8 in assay [13]; 0.84 in assay [14]; 1 in assay [15]; 1 in assay [16]; 0.86 in assay [17]; 1 in assay [18].

For the substance Tau12 (antibody), the Peptide Intensity (fraction of the highest abundance among the three IP antibodies) in assay [1] was determined as 0.82; in assay [2] it was 1; in assay [3], 0.86; in [4] it was 0.59; in assay [5], 0.42; in [6] it was 0.31. In addition, the Peptide Intensity (fraction of the highest abundance among the three IP antibodies) came out at 0.68 in assay [7]; 0.86 in assay [8]; 0.92 in [9]; 1 in assay [10]; 0.99 in assay [11]; 1 in assay [12]. In addition, the Peptide Intensity (fraction of the highest abundance among the three IP antibodies) in assay [13] was 1; in assay [14], 0.15; in assay [15], 0.47; in assay [16], 0.87; in [17], 1; in assay [18], 0.46.
